In this experiment the target is ankyrin-B (UniProt Q01484).
Chain of UniProt Q01484 (Q01484 whole entry): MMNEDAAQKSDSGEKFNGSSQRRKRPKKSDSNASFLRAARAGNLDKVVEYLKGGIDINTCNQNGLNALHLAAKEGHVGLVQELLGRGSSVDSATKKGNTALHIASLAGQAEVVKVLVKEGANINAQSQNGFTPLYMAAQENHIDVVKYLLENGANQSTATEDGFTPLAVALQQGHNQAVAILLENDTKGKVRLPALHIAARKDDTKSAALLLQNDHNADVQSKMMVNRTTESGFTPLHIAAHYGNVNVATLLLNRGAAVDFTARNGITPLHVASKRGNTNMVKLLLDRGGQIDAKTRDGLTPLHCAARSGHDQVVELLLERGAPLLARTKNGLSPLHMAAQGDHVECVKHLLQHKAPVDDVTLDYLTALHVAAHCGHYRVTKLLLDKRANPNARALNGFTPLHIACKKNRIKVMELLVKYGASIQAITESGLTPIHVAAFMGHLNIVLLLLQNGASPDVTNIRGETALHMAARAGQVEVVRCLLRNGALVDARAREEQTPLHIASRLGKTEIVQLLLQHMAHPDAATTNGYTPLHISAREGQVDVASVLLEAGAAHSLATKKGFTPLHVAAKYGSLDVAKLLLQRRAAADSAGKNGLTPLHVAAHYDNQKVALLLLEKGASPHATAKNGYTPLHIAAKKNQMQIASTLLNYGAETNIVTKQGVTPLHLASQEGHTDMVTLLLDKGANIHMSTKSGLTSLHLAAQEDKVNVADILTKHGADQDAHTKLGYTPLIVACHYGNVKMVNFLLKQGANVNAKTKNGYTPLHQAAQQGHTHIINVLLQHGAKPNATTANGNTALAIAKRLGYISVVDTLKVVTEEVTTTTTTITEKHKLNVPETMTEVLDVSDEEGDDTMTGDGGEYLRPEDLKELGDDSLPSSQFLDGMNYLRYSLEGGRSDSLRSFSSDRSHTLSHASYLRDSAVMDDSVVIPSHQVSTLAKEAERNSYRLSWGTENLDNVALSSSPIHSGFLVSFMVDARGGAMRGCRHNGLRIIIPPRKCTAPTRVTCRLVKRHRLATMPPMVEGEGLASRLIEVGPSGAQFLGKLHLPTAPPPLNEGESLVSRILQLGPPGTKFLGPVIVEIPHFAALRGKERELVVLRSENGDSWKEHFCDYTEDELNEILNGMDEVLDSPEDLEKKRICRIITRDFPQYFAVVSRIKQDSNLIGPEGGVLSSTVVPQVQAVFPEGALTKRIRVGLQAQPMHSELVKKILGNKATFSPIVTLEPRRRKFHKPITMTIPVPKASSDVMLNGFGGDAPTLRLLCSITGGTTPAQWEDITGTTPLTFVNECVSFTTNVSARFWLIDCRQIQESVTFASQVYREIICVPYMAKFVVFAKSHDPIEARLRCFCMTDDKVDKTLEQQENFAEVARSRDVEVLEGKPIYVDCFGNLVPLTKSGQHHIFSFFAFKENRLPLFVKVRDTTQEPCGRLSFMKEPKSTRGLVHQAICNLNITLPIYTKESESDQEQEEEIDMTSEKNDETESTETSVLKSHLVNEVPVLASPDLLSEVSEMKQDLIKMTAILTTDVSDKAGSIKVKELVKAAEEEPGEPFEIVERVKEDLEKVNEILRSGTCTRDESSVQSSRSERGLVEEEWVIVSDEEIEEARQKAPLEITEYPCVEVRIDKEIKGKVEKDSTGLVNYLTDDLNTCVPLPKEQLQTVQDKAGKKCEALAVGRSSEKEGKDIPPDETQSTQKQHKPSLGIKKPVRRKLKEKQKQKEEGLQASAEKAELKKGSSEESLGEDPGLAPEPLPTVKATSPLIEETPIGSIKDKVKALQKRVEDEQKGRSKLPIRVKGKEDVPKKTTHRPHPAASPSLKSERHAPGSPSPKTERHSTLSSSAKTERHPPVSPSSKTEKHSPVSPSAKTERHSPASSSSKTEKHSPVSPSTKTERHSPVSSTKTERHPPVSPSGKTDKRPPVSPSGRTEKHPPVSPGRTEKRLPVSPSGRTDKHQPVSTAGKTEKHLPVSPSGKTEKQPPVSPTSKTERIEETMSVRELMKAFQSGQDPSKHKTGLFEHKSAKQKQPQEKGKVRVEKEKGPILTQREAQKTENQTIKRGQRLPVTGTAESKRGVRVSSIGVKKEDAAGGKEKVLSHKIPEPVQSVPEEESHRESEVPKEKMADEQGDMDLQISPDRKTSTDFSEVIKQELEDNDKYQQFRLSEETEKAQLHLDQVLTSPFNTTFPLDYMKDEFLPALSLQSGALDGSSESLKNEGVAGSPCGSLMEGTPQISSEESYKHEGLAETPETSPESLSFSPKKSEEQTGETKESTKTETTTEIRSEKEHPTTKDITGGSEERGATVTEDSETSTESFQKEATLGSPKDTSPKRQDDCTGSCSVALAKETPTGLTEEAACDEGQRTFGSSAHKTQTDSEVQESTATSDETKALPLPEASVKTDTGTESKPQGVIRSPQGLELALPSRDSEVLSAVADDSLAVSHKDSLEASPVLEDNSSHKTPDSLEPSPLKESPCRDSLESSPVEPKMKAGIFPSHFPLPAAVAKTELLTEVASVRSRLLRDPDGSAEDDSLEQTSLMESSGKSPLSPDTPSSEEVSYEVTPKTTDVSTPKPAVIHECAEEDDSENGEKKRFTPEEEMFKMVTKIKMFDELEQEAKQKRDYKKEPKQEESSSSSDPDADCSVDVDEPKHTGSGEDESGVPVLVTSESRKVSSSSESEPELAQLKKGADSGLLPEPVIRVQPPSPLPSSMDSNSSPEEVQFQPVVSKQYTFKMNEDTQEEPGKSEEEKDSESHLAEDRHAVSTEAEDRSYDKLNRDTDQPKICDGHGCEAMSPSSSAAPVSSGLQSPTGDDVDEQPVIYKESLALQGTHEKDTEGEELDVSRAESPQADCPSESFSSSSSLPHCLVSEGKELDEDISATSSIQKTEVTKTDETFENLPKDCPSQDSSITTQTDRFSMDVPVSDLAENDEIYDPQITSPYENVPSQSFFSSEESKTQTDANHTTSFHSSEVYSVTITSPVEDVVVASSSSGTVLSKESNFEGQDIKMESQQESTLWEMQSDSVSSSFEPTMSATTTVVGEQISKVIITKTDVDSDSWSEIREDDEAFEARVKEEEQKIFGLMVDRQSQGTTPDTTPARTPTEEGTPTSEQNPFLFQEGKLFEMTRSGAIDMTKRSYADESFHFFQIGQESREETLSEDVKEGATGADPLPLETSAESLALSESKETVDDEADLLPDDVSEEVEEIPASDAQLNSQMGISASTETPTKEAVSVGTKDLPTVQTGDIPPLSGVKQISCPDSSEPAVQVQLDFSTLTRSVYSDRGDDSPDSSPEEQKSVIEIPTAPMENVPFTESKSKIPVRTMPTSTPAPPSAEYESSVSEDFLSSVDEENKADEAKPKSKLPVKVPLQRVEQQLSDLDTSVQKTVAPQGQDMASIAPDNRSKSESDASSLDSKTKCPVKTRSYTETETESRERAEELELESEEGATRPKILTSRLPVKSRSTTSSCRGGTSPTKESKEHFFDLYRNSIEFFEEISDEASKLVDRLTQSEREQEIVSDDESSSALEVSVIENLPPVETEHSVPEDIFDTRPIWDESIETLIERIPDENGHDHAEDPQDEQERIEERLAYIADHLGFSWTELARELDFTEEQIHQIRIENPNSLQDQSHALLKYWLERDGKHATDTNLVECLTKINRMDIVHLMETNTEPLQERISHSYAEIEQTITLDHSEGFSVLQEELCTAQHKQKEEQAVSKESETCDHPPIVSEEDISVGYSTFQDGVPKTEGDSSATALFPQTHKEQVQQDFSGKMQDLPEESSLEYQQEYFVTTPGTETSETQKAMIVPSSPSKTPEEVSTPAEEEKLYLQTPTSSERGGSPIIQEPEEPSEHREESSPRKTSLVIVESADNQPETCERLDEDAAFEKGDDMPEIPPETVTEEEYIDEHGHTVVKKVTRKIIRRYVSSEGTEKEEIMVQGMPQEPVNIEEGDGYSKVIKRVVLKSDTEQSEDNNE

With “IP3 receptor (from UniProt P29994 1-2750)”, the dissociation constant (Kd) worked out at 200 nM.

For the origin of these results see publication PMC2169334.
